Experimental data taken from PMC9371724 (2022).

T1: HA69 peptide on HLA DQB1*06:02/DQA1*01:02 (DQ0602) (human)
T1 peptide: AMERNAGSGIIISDT


Biological target: T1, HA69 peptide on HLA …
Assay: activation reporter or marker

Binder	binding result
TCR CATVGYNTDKLIF / CASSQGQAATNEKLFF (TCR) alpha TRAV17 TRAJ34 CDR3: CATVGYNTDKLIF beta TRBV4-3 TRBJ1-4 CDR3: CASSQGQAATNEKLFF	recognises
TCR CAGSSANQAGTALIF / CSARGGQGAPSPLHF (TCR) alpha TRAV35 TRAJ15 CDR3: CAGSSANQAGTALIF beta TRBV20-1 TRBJ1-6 CDR3: CSARGGQGAPSPLHF	recognises
TCR CAVSRAGANNLFF / CASSQGLGPGLFNQPQHF (TCR) alpha TRAV21 TRAJ36 CDR3: CAVSRAGANNLFF beta TRBV4-3 TRBJ1-5 CDR3: CASSQGLGPGLFNQPQHF	recognises
TCR CAAFENVLHC / CASSERPYPGETQYF (TCR) alpha TRAV13-1 TRAJ35 CDR3: CAAFENVLHC beta TRBV6-1 TRBJ2-5 CDR3: CASSERPYPGETQYF	recognises
…-1 (TCR) alpha TRAV5 TRAJ8 CDR3: CAEMDTGFQKLVF beta TRBV6-5 TRBJ1-1 CDR3: CASSGQGSTEAFF	no recognition
TCR CATDSYNTDKLIF / CASSQGLGPTNYGYTF (TCR) alpha TRAV17 TRAJ34 CDR3: CATDSYNTDKLIF beta TRBV4-3 TRBJ1-2 CDR3: CASSQGLGPTNYGYTF	recognises
TCR CATDAYNTDKLIF / CASSQGAVPAGNTIYF (TCR) alpha TRAV17 TRAJ34 CDR3: CATDAYNTDKLIF beta TRBV4-3 TRBJ1-3 CDR3: CASSQGAVPAGNTIYF	recognises
TCR512 (TCR) alpha TRAV13-1 TRAJ23 CDR3: CAAPYNQGGKLIF beta TRBV19 TRBJ1-5 CDR3: CASSIVRGLYSNQPQHF	recognises
…-1 (TCR) alpha TRAV10 TRAJ26 CDR3: CVVSPTGGQNFVF beta TRBV6-2 TRBJ2-6 CDR3: CASSYWGLGANVLTF	no recognition
TCR867 (TCR) alpha TRAV17 TRAJ34 CDR3: CATDAYNTDKLIF beta TRBV4-3 TRBJ1-3 CDR3: CASSQGRTASGNTIYF	recognises
TCR CATDGGGIGAGSYQLTF / CATSRGGSPPYEQYF (TCR) alpha TRAV17 TRAJ28 CDR3: CATDGGGIGAGSYQLTF beta TRBV15 TRBJ2-7 CDR3: CATSRGGSPPYEQYF	recognises
TCR CIVRVGTNMDSNYQLIW / CASSKSYNEQFF (TCR) alpha TRAV26-1 TRAJ33 CDR3: CIVRVGTNMDSNYQLIW beta TRBV19 TRBJ2-1 CDR3: CASSKSYNEQFF	recognises
TCR CIVSPHGSGNTGKLIF / CASSIGARGQLFF (TCR) alpha TRAV26-1 TRAJ37 CDR3: CIVSPHGSGNTGKLIF beta TRBV19 TRBJ1-4 CDR3: CASSIGARGQLFF	recognises
TCR CAAPGANNLFF / CASSGTGGQGYNEQFF (TCR) alpha TRAV13-1 TRAJ36 CDR3: CAAPGANNLFF beta TRBV2 TRBJ2-1 CDR3: CASSGTGGQGYNEQFF	recognises
TCR821 (TCR) alpha TRAV26-1 TRAJ23 CDR3: CIVMLTTNQGGKLIF beta TRBV19 TRBJ2-4 CDR3: CASSPGLAGGGSIQYF	recognises
TCR839 (TCR) alpha TRAV12-2 TRAJ37 CDR3: CAVNPPWSNTGKLIF beta TRBV19 TRBJ2-5 CDR3: CASTRGVGTSGAKETQYF	recognises
TCR CATVAYNTDKLIF / CASSPGRTGGTYYGYTF (TCR) alpha TRAV17 TRAJ34 CDR3: CATVAYNTDKLIF beta TRBV4-3 TRBJ1-2 CDR3: CASSPGRTGGTYYGYTF	recognises
…-1 (TCR) alpha TRAV38-2/DV8 TRAJ39 CDR3: CAYRSFNNAGNMLTF beta TRBV28 TRBJ1-6 CDR3: CASTETGSNSPLHF	no recognition
TCR CVVRGQAGTALIF / CASSGHWNTEAFF (TCR) alpha TRAV10 TRAJ15 CDR3: CVVRGQAGTALIF beta TRBV19 TRBJ1-1 CDR3: CASSGHWNTEAFF	recognises
TCR CAVGATDSWGKFQF / CASSIDATGHSNQPQHF (TCR) alpha TRAV8-3 TRAJ24 CDR3: CAVGATDSWGKFQF beta TRBV19 TRBJ1-5 CDR3: CASSIDATGHSNQPQHF	recognises
…-1 (TCR) alpha TRAV9-2 TRAJ4 CDR3: CALPSLSGGYNKLIF beta TRBV7-8 TRBJ1-3 CDR3: CASSLAGNGNTIYF	no recognition
…-1 (TCR) alpha TRAV27 TRAJ26 CDR3: CKYGQNFVF beta TRBV19 TRBJ2-3 CDR3: CASSRPGLNTDTQYF	no recognition
TCR819 (TCR) alpha TRAV17 TRAJ34 CDR3: CATAAYNTDKLIF beta TRBV4-3 TRBJ1-2 CDR3: CASSQAMTGGSDYGYTF	recognises
TCR766 (TCR) alpha TRAV17 TRAJ34 CDR3: CATASYNTDKLIF beta TRBV4-3 TRBJ1-5 CDR3: CASSQGATGGSNQPQHF	recognises
…-1 (TCR) alpha TRAV19 TRAJ45 CDR3: CALSEDAGGGADGLTF beta TRBV12-3 TRBJ2-5 CDR3: CASRRHQQETQYF	no recognition
…-1 (TCR) alpha TRAV26-2 TRAJ41 CDR3: CILRDSNSGYALNF beta TRBV7-8 TRBJ1-5 CDR3: CASSSGTHRSPQHF	no recognition
TCR CIVRVLTNQGGKLIF / CSAGSGLGGYNEQFF (TCR) alpha TRAV26-1 TRAJ23 CDR3: CIVRVLTNQGGKLIF beta TRBV20-1 TRBJ2-1 CDR3: CSAGSGLGGYNEQFF	recognises
…-1 (TCR) alpha TRAV2 TRAJ20 CDR3: CAVEDKHDYKLSF beta TRBV9 TRBJ1-2 CDR3: CASSFKEGSNYGYTF	no recognition

Binder	binding result
…-1 (TCR) alpha TRAV8-6 TRAJ42 CDR3: CAVMGYGGSQGNLIF beta TRBV4-3 TRBJ2-1 CDR3: CASSQELGVYNEQFF	no recognition
TCR CAAPGANNLFF / CASSQPHRTSVTGELFF (TCR) alpha TRAV13-1 TRAJ36 CDR3: CAAPGANNLFF beta TRBV4-2 TRBJ2-2 CDR3: CASSQPHRTSVTGELFF	recognises
TCR CAVSDRDSGNTPLVF / CASSQGDVNYGYTF (TCR) alpha TRAV8-6 TRAJ29 CDR3: CAVSDRDSGNTPLVF beta TRBV4-3 TRBJ1-2 CDR3: CASSQGDVNYGYTF	recognises
TCR CAVSEGRSNQGGKLIF / CASSSQGRENEQYF (TCR) alpha TRAV8-6 TRAJ23 CDR3: CAVSEGRSNQGGKLIF beta TRBV19 TRBJ2-7 CDR3: CASSSQGRENEQYF	recognises
TCR CAVQELARLMF / CASSVEGYSSPLHF (TCR) alpha TRAV20 TRAJ31 CDR3: CAVQELARLMF beta TRBV6-1 TRBJ1-6 CDR3: CASSVEGYSSPLHF	recognises
…-1 (TCR) alpha TRAV20 TRAJ52 CDR3: CAVQAPGTSYGKLTF beta TRBV24-1 TRBJ2-3 CDR3: CATSVGTSGYTQYF	no recognition
TCR CAANLDNFNKFYF / CATSRGIQPNEKLFF (TCR) alpha TRAV25 TRAJ21 CDR3: CAANLDNFNKFYF beta TRBV15 TRBJ1-4 CDR3: CATSRGIQPNEKLFF	recognises
TCR872 (TCR) alpha TRAV17 TRAJ34 CDR3: CATVGYNTDKLIF beta TRBV4-3 TRBJ1-4 CDR3: CASSQGLGPTNEKLFF	recognises
TCR CALSEAFPPLYNFNKFYF / CASSLFATSGKDTQYF (TCR) alpha TRAV19 TRAJ21 CDR3: CALSEAFPPLYNFNKFYF beta TRBV5-6 TRBJ2-3 CDR3: CASSLFATSGKDTQYF	recognises
TCR100 (TCR) alpha TRAV8-3 TRAJ24 CDR3: CAVVTTDSWGKFQF beta TRBV19 TRBJ1-5 CDR3: CASSDSPTGHGNQPQHF	recognises
…-1 (TCR) alpha TRAV21 TRAJ30 CDR3: CAVGDDKIIF beta TRBV12-3 TRBJ1-1 CDR3: CASSSRSGLKAFF	no recognition
…-1 (TCR) alpha TRAV29/DV5 TRAJ48 CDR3: CAAKGGGNEKLTF beta TRBV12-3 TRBJ1-3 CDR3: CASTPRVLQFSGNTIYF	no recognition
…-1 (TCR) alpha TRAV38-2/DV8 TRAJ39 CDR3: CAYRSANNAGNMLTF beta TRBV6-5 TRBJ1-5 CDR3: CASRTSGGNQPQHF	no recognition
TCR CATGSYNTDKLIF / CASSPGLAGGTGELFF (TCR) alpha TRAV17 TRAJ34 CDR3: CATGSYNTDKLIF beta TRBV4-3 TRBJ2-2 CDR3: CASSPGLAGGTGELFF	recognises
TCR CAASMSTNQGGKLIF / CSADRYAYEQYF (TCR) alpha TRAV13-1 TRAJ23 CDR3: CAASMSTNQGGKLIF beta TRBV20-1 TRBJ2-7 CDR3: CSADRYAYEQYF	recognises
…-1 (TCR) alpha TRAV21 TRAJ46 CDR3: CAVRPKEGSGDKLTF beta TRBV2 TRBJ2-2 CDR3: CASSESGRGPGELFF	no recognition
…-1 (TCR) alpha TRAV10 TRAJ41 CDR3: CVVSEGGYALNF beta TRBV5-1 TRBJ1-5 CDR3: CASSDGTDSNQPQHF	no recognition
TCR CATDSYNTDKLIF / CASSQGAGAQTYYGYTF (TCR) alpha TRAV17 TRAJ34 CDR3: CATDSYNTDKLIF beta TRBV4-3 TRBJ1-2 CDR3: CASSQGAGAQTYYGYTF	recognises
TCR806 (TCR) alpha TRAV26-1 TRAJ33 CDR3: CIVRGGTNMDSNYQLIW beta TRBV19 TRBJ1-6 CDR3: CASTGQGNSPLHF	recognises
…-1 (TCR) alpha TRAV17 TRAJ54 CDR3: CATDAAGAQKLVF beta TRBV19 TRBJ2-1 CDR3: CASSILAGVYNEQFF	no recognition
…-1 (TCR) alpha TRAV8-4 TRAJ9 CDR3: CAVNGGFKTIF beta TRBV6-1 TRBJ2-1 CDR3: CASRDRNQYNEQFF	no recognition
…-1 (TCR) alpha TRAV2 TRAJ40 CDR3: CAVEDRDSGTYKYIF beta TRBV18 TRBJ2-1 CDR3: CASSPSRGAPEYNEQFF	no recognition
TCR CALGPGDNQGGKLIF / CASSLAQAPAGETQYF (TCR) alpha TRAV9-2 TRAJ23 CDR3: CALGPGDNQGGKLIF beta TRBV11-1 TRBJ2-5 CDR3: CASSLAQAPAGETQYF	recognises
TCR CIVRVGTNQGGKLIF / CASSMGLALETQYF (TCR) alpha TRAV26-1 TRAJ23 CDR3: CIVRVGTNQGGKLIF beta TRBV19 TRBJ2-5 CDR3: CASSMGLALETQYF	recognises
…-1 (TCR) alpha TRAV9-2 TRAJ8 CDR3: CALSEGSTGFQKLVF beta TRBV7-8 TRBJ1-3 CDR3: CASSVAGNGNTIYF	no recognition
…-1 (TCR) alpha TRAV12-3 TRAJ39 CDR3: CATSYNNAGNMLTF beta TRBV4-2 TRBJ2-5 CDR3: CASSQGTSGEETQYF	no recognition
TCR CILRGGTNQGGKLIF / CSAEGQGAGNTIYF (TCR) alpha TRAV26-2 TRAJ23 CDR3: CILRGGTNQGGKLIF beta TRBV20-1 TRBJ1-3 CDR3: CSAEGQGAGNTIYF	recognises
